# Source: patent publication US20140287989A1 (CENTRE NATIONAL DE LA RECHERCHE SCIENTIFIQUE, published 2014)
# Square brackets hold non-standard residues; d marks the D form. Phe(3,4-Cl2) = N[C@@H](Cc1ccc(Cl)c(Cl)c1)C(=O)O; Phe(4-Br) = N[C@@H](Cc1ccc(Br)cc1)C(=O)O; Phe(4-Cl) = N[C@@H](Cc1ccc(Cl)cc1)C(=O)O; Phe(4-Me) = Cc1ccc(C[C@H](N)C(=O)O)cc1; Cha = N[C@@H](CC1CCCCC1)C(=O)O
# B1: P11 (Ac-Gln-Cha-Asp-Leu-pMePhe-OH) (peptide)
# peptide: Ac-Q[Cha]DL[Phe(4-Me)]-OH
# SMILES: CC(=O)N[C@@H](CCC(N)=O)C(=O)N[C@@H](CC1CCCCC1)C(=O)N[C@@H](CC(=O)O)C(=O)N[C@@H](CC(C)C)C(=O)N[C@@H](Cc1ccc(C)cc1)C(=O)O
# notes: also called AcQChaDLpMeF; Ac-Q Cha DL pMeF
# B2: P7 (Ac Q Cha DLF) (peptide)
# peptide: Ac-Q[Cha]DLF-OH
# SMILES: CC(=O)N[C@@H](CCC(N)=O)C(=O)N[C@@H](CC1CCCCC1)C(=O)N[C@@H](CC(=O)O)C(=O)N[C@@H](CC(C)C)C(=O)N[C@@H](Cc1ccccc1)C(=O)O
# notes: also called Ac-Gln-Cha-Asp-Leu-Phe-OH
# B3: P1, natural C-terminal heptapeptide of E. coli DNA polymerase IV (RQLVLGL) (peptide)
# peptide: H-RQLVLGL-OH
# notes: Used free in solution as challenger and immobilised on the SPR chip; the way of immobilisation is not described; also called natural Cter heptamer; natural heptapeptide
# B4: P7 (Ac-Gln-Cha-Asp-Leu-Phe-OH) (peptide)
# peptide: Ac-Q[Cha]DLF-OH
# SMILES: CC(=O)N[C@@H](CCC(N)=O)C(=O)N[C@@H](CC1CCCCC1)C(=O)N[C@@H](CC(=O)O)C(=O)N[C@@H](CC(C)C)C(=O)N[C@@H](Cc1ccccc1)C(=O)O
# notes: also called AcQChaDLF; Ac Q Cha D L F
# B5: P13 (Ac-Gln-Cha-Asp-Leu-pBrPhe-OH) (peptide)
# peptide: Ac-Q[Cha]DL[Phe(4-Br)]-OH
# SMILES: CC(=O)N[C@@H](CCC(N)=O)C(=O)N[C@@H](CC1CCCCC1)C(=O)N[C@@H](CC(=O)O)C(=O)N[C@@H](CC(C)C)C(=O)N[C@@H](Cc1ccc(Br)cc1)C(=O)O
# notes: also called AcQChaDLpBrF; Ac-Q Cha DL pBrF
# B6: P14 (Ac-Gln-Cha-Asp-Leu-(3,4-di-Cl)Phe-OH) (peptide)
# peptide: Ac-Q[Cha]DL[Phe(3,4-Cl2)]-OH
# SMILES: CC(=O)N[C@@H](CCC(N)=O)C(=O)N[C@@H](CC1CCCCC1)C(=O)N[C@@H](CC(=O)O)C(=O)N[C@@H](CC(C)C)C(=O)N[C@@H](Cc1ccc(Cl)c(Cl)c1)C(=O)O
# notes: also called AcQChaDLdiClF; Ac Q Cha D L diClF
# B7: P12 (Ac-Gln-Cha-Asp-Leu-pClPhe-OH) (peptide)
# peptide: Ac-Q[Cha]DL[Phe(4-Cl)]-OH
# SMILES: CC(=O)N[C@@H](CCC(N)=O)C(=O)N[C@@H](CC1CCCCC1)C(=O)N[C@@H](CC(=O)O)C(=O)N[C@@H](CC(C)C)C(=O)N[C@@H](Cc1ccc(Cl)cc1)C(=O)O
# notes: also called AcQChaDLpClF; Ac-Q Cha DL pClF
# Assays:
# [1] = molecular target: E. coli β clamp (β subunit of DNA polymerase III, dnaN gene product), N-tagged (E. coli) (UniProt P0A988); assay: ITC
# [2] = molecular target: E. coli β clamp (β subunit of DNA polymerase III, dnaN gene product), N-tagged (E. coli) (UniProt P0A988)
# [3] = molecular target: E. coli β clamp (β subunit of DNA polymerase III, dnaN gene product), N-tagged (E. coli) (UniProt P0A988); assay: ITC / SPR
# [4] = molecular target: E. coli β clamp (β subunit of DNA polymerase III, dnaN gene product), N-tagged (E. coli) (UniProt P0A988); assay: SPR competition on immobilised P1
# [5] = molecular target: E. coli β clamp (β subunit of DNA polymerase III, dnaN gene product), N-tagged (E. coli) (UniProt P0A988); assay: ITC, peptide 400 µM into β ring 20 or 30 µM, 25° C
# [6] = molecular target: E. coli β clamp (β subunit of DNA polymerase III, dnaN gene product) (E. coli) (UniProt P0A988); assay: SPR competition, β ring on immobilised P1
# [7] = molecular target: E. coli β clamp (β subunit of DNA polymerase III, dnaN gene product) (E. coli) (UniProt P0A988); assay: ITC, peptide 400 µM into β ring 30 µM, 25 °C
# [8] = molecular target: E. coli β clamp (β subunit of DNA polymerase III, dnaN gene product), N-tagged (E. coli) (UniProt P0A988); assay: SPR competition on immobilised P1; ΔG = -RT ln Ki
# [9] = molecular target: E. coli β clamp (β subunit of DNA polymerase III, dnaN gene product) (E. coli) (UniProt P0A988); assay: ITC, peptide 400 µM into β ring 30 µM, 25 °C, second experiment
# [10] = molecular target: E. coli β clamp (β subunit of DNA polymerase III, dnaN gene product), N-tagged (E. coli) (UniProt P0A988); assay: SPR competition (Biacore 3000): β ring 0.25 µM mixed with the challenger, injected on immobilised P1
# [11] = molecular target: T1, E. coli β clamp (β subunit of DNA polymerase III, dnaN gene product) (E. coli, UniProt P0A988 1-366); assay: from ITC data; compared residues F/pMeF
# T1 construct: Expressed in BL21 E. coli from pET15b with an N-terminal tag; also called β ring; β protein; not shown: N-terminal tag from plasmid pET15b ('N-tagged protein', purified on Ni-NTA)
# [12] = molecular target: T1, E. coli β clamp (β subunit of DNA …); assay: SPR competition, β ring on immobilised P1
# [13] = molecular target: T1, E. coli β clamp (β subunit of DNA …); assay: ITC, peptide 400 µM into β ring 20 µM, 25 °C
# [14] = molecular target: T1, E. coli β clamp (β subunit of DNA …); assay: ITC, peptide 400 µM into β ring 20 µM, 25 °C, second experiment
# [15] = molecular target: T2, E. coli β clamp (β subunit of DNA polymerase III, dnaN gene product), N-tagged (E. coli, UniProt P0A988 1-366); assay: SPR competition against P1
# T2 construct: The dnaN gene was cloned in pET15b and expressed in BL21 E. coli; also called β ring; β protein; not shown: N-terminal tag from the pET15b vector (N-tagged protein, enriched on Ni-NTA)
# [16] = molecular target: T2, E. coli β clamp (β subunit of DNA …); assay: SPR competition on immobilised P1
# [17] = molecular target: T2, E. coli β clamp (β subunit of DNA …); assay: cell-based or functional assay
# [18] = molecular target: T2, E. coli β clamp (β subunit of DNA …); assay: ITC, peptide 400 µM into β ring 30 µM, 25° C
# [19] = molecular target: T2, E. coli β clamp (β subunit of DNA …); assay: SPR competition on immobilised P1; ΔG = -RT ln Ki
# [20] = molecular target: T2, E. coli β clamp (β subunit of DNA …); assay: SPR direct binding: β protein (0.125 µM to 2 µM) injected on immobilised P1, 1:1 Langmuir model
# [21] = molecular target: T2, E. coli β clamp (β subunit of DNA …); assay: SPR competition (Biacore 3000): β ring 0.25 µM mixed with the challenger, injected on immobilised P1
# [22] = molecular target: T1, E. coli β clamp (β subunit of DNA …); assay: from ITC data; compared residues L/Cha
# [23] = molecular target: T1, E. coli β clamp (β subunit of DNA …); assay: ITC, peptide 400 µM into β ring 30 µM, 25 °C
# [24] = molecular target: T1, E. coli β clamp (β subunit of DNA …); assay: ITC, peptide 400 µM into β ring 30 µM, 25 °C, second experiment
# [25] = molecular target: T1, E. coli β clamp (β subunit of DNA …); assay: SPR competition, concentration of peptide that challenges 50% of the binding of β ring to P1
# [26] = molecular target: T1, E. coli β clamp (β subunit of DNA …); assay: from ITC data; compared residues F/pBrF
# [27] = molecular target: T1, E. coli β clamp (β subunit of DNA …); assay: from ITC data; compared residues pMeF/pBrF
# [28] = molecular target: T1, E. coli β clamp (β subunit of DNA …); assay: from ITC data; compared residues F/diClF
# [29] = molecular target: T1, E. coli β clamp (β subunit of DNA …); assay: from ITC data; compared residues pBrF/diClF
# [30] = molecular target: T1, E. coli β clamp (β subunit of DNA …); assay: from ITC data; compared residues pClF/diClF
# [31] = molecular target: T1, E. coli β clamp (β subunit of DNA …); assay: from ITC data; compared residues pMeF/diClF
# [32] = molecular target: T1, E. coli β clamp (β subunit of DNA …); assay: from ITC data; compared residues F/pClF
# [33] = molecular target: T1, E. coli β clamp (β subunit of DNA …); assay: from ITC data; compared residues pBrF/pClF
# [34] = molecular target: T1, E. coli β clamp (β subunit of DNA …); assay: from ITC data; compared residues pMeF/pClF
# T2 sequence (P0A988 whole entry): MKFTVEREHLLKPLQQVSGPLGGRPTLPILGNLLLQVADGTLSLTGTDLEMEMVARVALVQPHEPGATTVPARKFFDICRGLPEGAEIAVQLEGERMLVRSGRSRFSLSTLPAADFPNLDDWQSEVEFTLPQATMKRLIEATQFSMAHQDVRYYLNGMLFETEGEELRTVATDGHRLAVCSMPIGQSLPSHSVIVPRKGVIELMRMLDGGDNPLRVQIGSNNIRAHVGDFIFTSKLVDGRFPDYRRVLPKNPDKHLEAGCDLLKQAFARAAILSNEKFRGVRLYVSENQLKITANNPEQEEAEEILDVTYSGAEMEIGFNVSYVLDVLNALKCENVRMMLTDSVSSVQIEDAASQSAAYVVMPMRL
# Chain of E. coli β clamp (β subunit of DNA polymerase III, dnaN gene product), N-tagged (E. coli) (P0A988 whole entry): as above
# T1 sequence (P0A988 whole entry): as above
# Chain of E. coli β clamp (β subunit of DNA polymerase III, dnaN gene product) (E. coli) (P0A988 whole entry): as above
molecule,measurement,setting,value
P14 (Ac-Q Cha DL diClF) (peptide),Kd,[1],60 nM
same,"IC50, Pol IV based biochemical assay (inhibition of β dependent Pol IV elongation)",[2],125 nM
same,fold increase in binding against P6,[3],10 to 15 fold
same,IC50,[4],70 nM
same,fold increase against P1,[4],115 fold
same,fold increase against P6,[4],15 fold
same,fold increase against the full PolIV enzyme,[4],4 fold
same,Kd,[5],65 nM
P3 (RQLVLF) (peptide; other documents disagree on this pair),IC50,[6],8620 nM
same,Kd,[7],2820 nM
same,ΔG,[7],-7.5 kcal/mol
same,ΔH,[7],-5.77 kcal/mol
same,ΔS,[7],6.05 cal/mol/deg
same,ΔG,[8],-7.04 kcal/mol
same,Kd,[9],2320 nM
same,ΔG,[9],-7.6 kcal/mol
same,ΔH,[9],-5.7 kcal/mol
same,ΔS,[9],6.6 cal/mol/deg
same,IC50,[10],8620 nM
B1,ΔΔG (ΔGj - ΔGi) of P11 against P7,[11],0.25 kcal/mol
same,IC50,[12],260 nM
same,Kd,[13],401 nM
same,ΔG,[13],-8.6 kcal/mol
same,ΔH,[13],-14.8 kcal/mol
same,ΔS,[13],-20.4 cal/mol/deg
same,Kd,[14],362 nM
same,ΔG,[14],-8.6 kcal/mol
same,ΔH,[14],-14.4 kcal/mol
same,ΔS,[14],-19 cal/mol/deg
B2,fold decrease in affinity against P14,[15],2 fold
same,fold increase in the interaction against P6,[16],6 fold
same,"IC50, Pol IV based biochemical assay (inhibition of β dependent Pol IV elongation)",[17],2800 nM
B3,fold less efficient binding than the whole polymerase (PolIV),[16],30 fold
same,Kd,[18],1000 to 2000 nM
same,ΔG,[19],-7.06 kcal/mol
same,Kd,[20],285 nM
same,IC50,[21],8850 nM
B4,ΔΔG (ΔGj - ΔGi) of P7 against P6,[22],-0.66 kcal/mol
same,IC50,[12],170 nM
same,Kd,[23],246 nM
same,ΔG,[23],-8.9 kcal/mol
same,ΔH,[23],-21.3 kcal/mol
same,ΔS,[23],-41.2 cal/mol/deg
same,Kd,[24],222 nM
same,ΔG,[24],-8.9 kcal/mol
same,ΔH,[24],-20.5 kcal/mol
same,ΔS,[24],-38.5 cal/mol/deg
same,Ki,[25],170 nM
B5,ΔΔG (ΔGj - ΔGi) of P13 against P7,[26],-0.28 kcal/mol
same,IC50,[12],96 nM
same,ΔΔG (ΔGj - ΔGi) of P13 against P11,[27],-0.53 kcal/mol
same,Kd,[13],136 nM
same,ΔG,[13],-9.3 kcal/mol
same,ΔH,[13],-18.1 kcal/mol
same,ΔS,[13],-29.3 cal/mol/deg
same,Kd,[14],167 nM
same,ΔG,[14],-9.1 kcal/mol
same,ΔH,[14],-15.2 kcal/mol
same,ΔS,[14],-20.2 cal/mol/deg
B6,ΔΔG (ΔGj - ΔGi) of P14 against P7,[28],-0.8 kcal/mol
same,IC50,[12],77 nM
same,ΔΔG (ΔGj - ΔGi) of P14 against P13,[29],-0.52 kcal/mol
same,ΔΔG (ΔGj - ΔGi) of P14 against P12,[30],-0.2 kcal/mol
same,ΔΔG (ΔGj - ΔGi) of P14 against P11,[31],-1.05 kcal/mol
same,Kd,[13],73 nM
same,ΔG,[13],-9.6 kcal/mol
same,ΔH,[13],-18.9 kcal/mol
same,ΔS,[13],-30.8 cal/mol/deg
same,Kd,[14],55 nM
same,ΔG,[14],-9.8 kcal/mol
same,ΔH,[14],-18.1 kcal/mol
same,ΔS,[14],-27.6 cal/mol/deg
same,Ki,[25],85 nM
B7,ΔΔG (ΔGj - ΔGi) of P12 against P7,[32],-0.6 kcal/mol
same,IC50,[12],160 nM
same,ΔΔG (ΔGj - ΔGi) of P12 against P13,[33],-0.32 kcal/mol
same,ΔΔG (ΔGj - ΔGi) of P12 against P11,[34],-0.85 kcal/mol
same,Kd,[13],89 nM
same,ΔG,[13],-9.6 kcal/mol
same,ΔH,[13],-15 kcal/mol
same,ΔS,[13],-18.1 cal/mol/deg
same,Kd,[14],122 nM
same,ΔG,[14],-9.4 kcal/mol
same,ΔH,[14],-14.3 kcal/mol
same,ΔS,[14],-16.3 cal/mol/deg
